We go through 34 molecules from patent US20210355194A1 (TWIST BIOSCIENCE, published 2021).

Residue numbers refer to the chain shown, from its start.

The labels stand for the following.
B1: variant 5-52 (Fc fusion)
VHH: EVQLVESGGGLVQPGGSLRLSCAASGEKFSDHWMGWFRQAPGKEREFVATITFSGARTAYADSVKGRFTISADNSKNTAYLQMNSLKPEDTAVYYCAALIKPSSTDRIFEEWGQGTLVTVSS
B2: variant 5-21 (Fc fusion)
VHH: EVQLVESGGGLVQPGGSLRLSCAASGGTFTTYHMGWFRQAPGKEREFVAHISTGGATNYADSVKGRFTISADNSKNTAYLQMNSLKPEDTAVYYCATFPAIVTDSDYDLGNDWGQGTLVTVSS
B3: variant 5-28 (Fc fusion)
VHH: EVQLVESGGGLVQPGGSLRLSCAASGGTFSVFAMGWFRQVPGKERELVAEITAGGSTYYADSVKGRFTISADNSKNTAYLQMNSLKPEDTAVYYCAVDGPFGWGQGTLVTVSS
B4: variant 5-22 (Fc fusion)
VHH: EVQLVESGGGLVQPGGSLRLSCAASGFTFNVFAMGWFRQAPGKEREFVAAINWSDSRTDYADSVKGRFTISADNSKNTAYLQMNSLKPEDTAVYYCASGSDNRARELSRYEYVWGQGTLVTVSS
B5: variant 5-64 (Fc fusion)
VHH: EVQLVESGGGLVQPGGSLRLSCAASGTSISNRVMGWFRQAPGKERELVARIYTGGDTLYADSVKGRFTISADNSKNTAYLQMNSLKPEDTAVYYCAARKIYRSLSYYGDYDWGQGTLVTVSS
B6: variant 5-50 (Fc fusion)
VHH: EVQLVESGGGLVQPGGSLRLSCAASGFSLDYYGMGWFRQAPGKEREFVAAITSGGTPHYADSVKGRFTISADNSKNTAYLQMNSLKPEDTAVYYCASAYNPGIGYDWGQGTLVTVSS
B7: variant 5-59 (Fc fusion)
VHH: EVQLVESGGGLVQPGGSLRLSCAASGLTFSLYRMCWFRQAPGKEREEVSCISNIDGSTYYADSVKGRFTISADNSKNTAYLQMNSLKPEDTAVYYCAADLLGDSDYEPSSGFGWGQGTLVTVSS
B8: variant 5-17 (Fc fusion)
VHH: EVQLVESGGGLVQPGGSLRLSCAASGPTFSIYAMGWFRQAPGKEREFVAGIRWSDVYTQYADSVKGRFTISADNSKNTAYLQMNSLKPEDTAVYYCALDIDYRDWGQGTLVTVSS
B9: variant 5-39 (Fc fusion)
VHH: B8 VHH with P27V, F29L, S30D, I31L, S54T, V56A, Q59E, L98V
B10: variant 5-60 (Fc fusion)
VHH: EVQLVESGGGLVQPGGSLRLSCAASGRSFSSHRMGWFRQAPGKEREFVAAIMWSGSHRNYADSVKGRFTISADNSKNTAYLQMNSLKPEDTAVYYCAAIAYEEGVYRWDWGQGTLVTVSS
B11: variant 5-42 (Fc fusion)
VHH: EVQLVESGGGLVQPGGSLRLSCAASGFTPDDYAMGWFRQAPGKEREFVASIGYSGRSNSYNYYADSVKGRFTISADNSKNTAYLQMNSLKPEDTAVYYCAIAHGSSTYNWGQGTLVTVSS
B12: variant 5-16 (Fc fusion)
VHH: EVQLVESGGGLVQPGGSLRLSCAASGRTHSIYPMGWFRQAPGKERELVAAIHSGGATVYADSVKGRFTISADNSKNTAYLQMNSLKPEDTAVYYCAARRWIPPGPIWGQGTLVTVSS
B13: variant 5-26 (Fc fusion)
VHH: EVQLVESGGGLVQPGGSLRLSCAASGRTISSYIMGWFRQAPGKERELVARIYTGGDTIYADSVKGRFTISADNSKNTAYLQMNSLKPEDTAVYYCAARTSYNGRYDYIDDYSWGQGTLVTVSS
B14: variant 5-13 (Fc fusion)
VHH: EVQLVESGGGLVQPGGSLRLSCAASGFTFDYYTMGWFRQAPGKEREFVAAIRSSGGLFYADSVKGRFTISADNSKNTAYLQMNSLKPEDTAVYYCAAYLDGYSGSWGQGTLVTVSS
B15: variant 5-23 (Fc fusion)
VHH: EVQLVESGGGLVQPGGSLRLSCAASGSIFSIDVMGWFRQAPGKEREFVAAISWSGESTLYADSVKGRFTISADNSKNTAYLQMNSLKPEDTAVYYCAAFDGYSGSDWGQGTLVTVSS
B16: variant 5-3 (Fc fusion)
VHH: B15 VHH with A50G, E56D, S103T
B17: variant 5-65 (Fc fusion)
VHH: EVQLVESGGGLVQPGGSLRLSCAASGNIDRLYAMGWFRQAPGKEREGVAAIDSDGSTDYADSVKGRFTISADNSKNTAYLQMNSLKPEDTAVYYCAALIDYGLGFPIEWGQGTLVTVSS
B18: variant 5-15 (Fc fusion)
VHH: EVQLVESGGGLVQPGGSLRLSCAASGFTFDGAAMGWFRQAPGKEREFVATIRWTNSTDYADSVKGRFTISADNSKNTAYLQMNSLKPEDTAVYYCARGRYGIVERWGQGTLVTVSS
B19: variant 5-68 (Fc fusion)
VHH: EVQLVESGGGLVQPGGSLRLSCAASGFTFDHYTMGWFRQAPGKEREFVAAISGSENVTSYADSVKGRFTISADNSKNTAYLQMNSLKPEDTAVYYCAAEPYIPVRTMRHMTFLTWGQGTLVTVSS
B20: variant 5-29 (Fc fusion)
VHH: EVQLVESGGGLVQPGGSLRLSCAASGFTFDDYPMGWFRQAPGKEREGVASVLRGGYTWYADSVKGRFTISADNSKNTAYLQMNSLKPEDTAVYYCAKDWATGLAWGQGTLVTVSS
B21: variant 5-49 (Fc fusion)
VHH: EVQLVESGGGLVQPGGSLRLSCAASGRTSTVNGMGWFRQAPGKEREFVASISQSGAATAYADSVKGRFTISADNSKNTAYLQMNSLKPEDTAVYYCAADRTYSYSSTGYYWGQGTLVTVSS
B22: variant 6-2 (Fc fusion)
VHH: EVQLVESGGGLVQPGGSLRLSCAASGFTMSSSWMGWFRQAPGKEREFVTVISGVGTSYADSVKGRFTISADNSKNTAYLQMNSLKPEDTAVYYCARGPDSSGYGFDYWGQGTLVTVSS
B23: variant 5-63 (Fc fusion)
VHH: EVQLVESGGGLVQPGGSLRLSCAASGFSLDYYDMGWFRQAPGKEREFVAALGWSGGSTDYADSVKGRFTISADNSKNTAYLQMNSLKPEDTAVYYCAAGNGGRYGIVERWGQGTLVTVSS
B24: variant 5-47 (Fc fusion)
VHH: EVQLVESGGGLVQPGGSLRLSCAASGFTFGSYDMGWFRQAPGKEREFVTAINWSGARTAYADSVKGRFTISADNSKNTAYLQMNSLKPEDTAVYYCAARSVYSYEYNWGQGTLVTVSS
B25: variant 5-32 (Fc fusion)
VHH: EVQLVESGGGLVQPGGSLRLSCAASGFTPDNYAMGWFRQAPGKEREFVAALGWSGVTTYHYYADSVKGRFTISADNSKNTAYLQMNSLKPEDTAVYYCASDESDAANWGQGTLVTVSS
B26: variant 5-27 (Fc fusion)
VHH: EVQLVESGGGLVQPGGSLRLSCAASGRANSINWMGWFRQAPGKEREFVATITPGGNTNYADSVKGRFTISADNSKNTAYLQMNSLKPEDTAVYYCAAAAGSTWYGTLYEYDWGQGTLVTVSS
B27: variant 5-51 (Fc fusion)
VHH: B26 VHH with A28P, E46Q, Q81L, S101T
B28: variant 6-1 (Fc fusion)
VHH: EVQLVESGGGLVQPGGSLRLSCAASGRTFGNYNMGWFRQAPGKEREFVATINSLGGTSYADSVKGRFTISADNSKNTAYLQMNSLKPEDTAVYYCARVDYYMDVWGQGTLVTVSS
B29: variant 5-67 (Fc fusion)
VHH: EVQLVESGGGLVQPGGSLRLSCAASGFNVNDYAMGWFRQAPGKEREFVAGITSSVGVTNYADSVKGRFTISADNSKNTAYLQMNSLKPEDTAVYYCAADIFFVNWGRGTLVTVSS
B30: variant 5-55 (Fc fusion)
VHH: EVQLVESGGGLVQPGGSLRLSCAASGIDVNRNAMGWFRQAPGKEREFVAAITWSGGWRYYADSVKGRFTISADNSKNTAYLQMNSLKPEDTAVYYCATTFGDAGIPDQYDFGWGQGTLVTVSS
B31: variant 5-56 (Fc fusion)
VHH: EVQLVESGGGLVQPGGSLRLSCAASGRTFSSNMGWFRQAPGKEREFVARIFGGDRTLYADSVKGRFTISADNSKNTAYLQMNSLKPEDTAVYYCADINGDWGQGTLVTVSS
B32: variant 6-3 (Fc fusion)
VHH: EVQLVESGGGLVQPGGSLRLSCAASGFTFSPSWMGWFRQAPGKEREFVATINEYGGRNYADSVKGRFTISADNSKNTAYLQMNSLKPEDTAVYYCARVDRDFDYWGQGTLVTVSS
notes: VHH-Fc
B33: variant 6-77 (Fc fusion)
VHH: EVQLVESGGGLVQPGGSLRLSCAASGFTFDRSWMGWFRQAPGKEREFVAAVTEGGTTSYADSVKGRFTISADNSKNTAYLQMNSLKPEDTAVYYCARADYDFDYWGQGTLVTVSS
B34: variant 6-30 (Fc fusion)
VHH: EVQLVESGGGLVQPGGSLRLSCAASGFAFGDSWMGWFRQAPGKEREFVATINWSGVTAYADSVKGRFTISADNSKNTAYLQMNSLKPEDTAVYYCARADGYFDYWGQGTLVTVSS

This assay addresses T1, Acro SARS-CoV-2 (COVID-19) S1 protein (SARS-CoV-2, UniProt P0DTC2 16-685).
T1 construct: also called SARS-CoV-2 S1
The assay can be described thus: SPR. A general note: In SPR one partner is held on a chip, and binding of the other changes the refractive index at the surface.
One may read the Kd as a measure of binding affinity in units of concentration. Regarding B1, binding was characterised by a dissociation constant (Kd) of 99 nM.

As for B2, binding was characterised by a dissociation constant (Kd) of 1070 nM.

B3 gave a Kd of 40 nM.

B4: the Kd turned out to be 109 nM.

Turning to B5, the Kd is 346 nM.

Consider B6, for which the Kd was found to be 60.5 nM.

B7 yielded a Kd of 113 nM.

Consider B8, for which the Kd came to 3630 nM.

With B9, the Kd worked out at 118 nM.

Turning to B10, the Kd stood at 29.4 nM.

B11: binding was characterised by a dissociation constant (Kd) of 116 nM.

As for B12, binding was characterised by a dissociation constant (Kd) of 50.2 nM.

In the case of B13, the affinity, expressed as Kd, was 21800 nM.

As to B14, the Kd was found to be 37.5 nM.

The molecule B15 yielded a Kd of 84.8 nM.

Turning to B16, the affinity, expressed as Kd, was 64.6 nM.

The molecule B17 returned a Kd of 353 nM.

Consider B18, for which binding was characterised by a dissociation constant (Kd) of 96.2 nM.

B19 displayed a Kd of 111 nM.

B20 gave a Kd of 42.4 nM.

For B21, the Kd is 74.5 nM.

In turn, B22 gave a Kd of 29.9 nM.

On to B23, for which binding was characterised by a dissociation constant (Kd) of 10.5 nM.

In the case of B24, the affinity, expressed as Kd, was 27.7 nM.

With B25, the Kd was 22.4 nM.

B26: the Kd was 92.9 nM.

In turn, B27 yielded a Kd of 25.5 nM.

The molecule B28 registered a Kd of 35.8 nM.

B29 returned a Kd of 22.1 nM.

Regarding B30, the Kd turned out to be 63.5 nM.

B31 gave a Kd of 54.3 nM.

In the case of B32, the affinity, expressed as Kd, was 12.4 nM.

The molecule B33 showed a Kd of 24.6 nM.

B34 gave a dissociation constant (Kd) of 11.8 nM.
